Where a chain is given by its changes, count along the chain named.
B1: C-1 (antibody, V domains shown)
VH: EVQLVESGGGLVQPGGSLRLSCAASGFTFTNSDIHWVRQAPGKGLEWVGGITPADGYTDYADSVKGRFTISADTSKNTAYLQMNSLRAEDTAVYYCARSYWSSSPGSAFDYWGQGTLVTVSS
VL: DIQMTQSPSSLSASVGDRVTITCRASQDVSTAVAWYQQKPGKAPKLLIYSASFLYSGVPSRFSGSGSGTDFTLTISSLQPEDFATYYCQQSYISPSTFGQGTKVEIK
B2: A-2 (antibody, V domains shown)
VH: EVQLVESGGGLVQPGGSLRLSCAASGFTFSNYGIHWVRQAPGKGLEWVGWITGNGGYSDYADSVKGRFTISADTSKNTAYLQMNSLRAEDTAVYYCARAGSWFAYWGQGTLVTVSS
VL: B1 VL with I93T, S94T, S96P
B3: A (antibody, V domains shown)
VH: B2 VH with G53P, N54D, S58T
VL: B1 VL with I93T, S94T, S96P
B4: C (antibody, V domains shown)
VH: B1 VH with S102N, S103N, A108G
VL: B1 VL with I93T, S94T, S96P
B5: D-1 (antibody, V domains shown)
VH: EVQLVESGGGLVQPGGSLRLSCAASGFTFTSNYMSWVRQAPGKGLEWVSTIWYQSGTTDYADSVKGRFTISADTSKNTAYLQMNSLRAEDTAVYYCARDSPWPSKGFGMDVWGQGTLVTVSS
VL: DIQMTQSPSSLSASVGDRVTITCRASQSISSYLAWYQQKPGKAPKLLIYGASSRASGVPSRFSGSGSGTDFTLTISSLQPEDFATYYCQQYLSSPITFGQGTKVEIK
B6: D-2 (antibody, V domains shown)
VH: B5 VH with T28S, F29V, T30K, S31P, N32M, S35T, D99S, P103S, S104G, K105E
VL: B5 VL with L92S, I96L
B7: D (antibody, V domains shown)
VH: B5 VH with D99S, P103S, S104G, K105E
VL: B5 VL with L92Y, I96L
B8: B-3 (antibody, V domains shown)
VH: EVQLVESGGGLVQPGGSLRLSCAASGFTFTSYDIHWVRQAPGKGLEWVGGISPADGDTDYANSVKGRFTISADTSKNTAYLQMNSLRAEDTAVYYCARNDYDVRFVGSGMDYWGQGTLVTVSS
VL: B1 VL with Y92F, I93T, S94A, S96P
B9: B-2 (antibody, V domains shown)
VH: B8 VH with F105S
VL: B1 VL with Y92W, I93T, S94A, S96P
B10: B-1 (antibody, V domains shown)
VH: B8 VH with F105T
VL: B1 VL with I93T, P95A, S96P
B11: B (antibody, V domains shown)
VH: B8 VH with F105S
VL: B1 VL with I93T, S94T, S96P

Each binder was assayed against human Jag1-DSL-EGF1-4 (UniProt P78504 34-377) (assay: Biacore (SPR)).

Binder | Kd [nM]
B1 | 0.31
B2 | 0.3
B3 | 94
B4 | 2.3
B5 | 0.52
B6 | 1.1
B7 | 13

Target: T1, murine Jag2-DSL-EGF1-4 (M27-E388) (UniProt Q9QYE5 27-388)
T1 chain: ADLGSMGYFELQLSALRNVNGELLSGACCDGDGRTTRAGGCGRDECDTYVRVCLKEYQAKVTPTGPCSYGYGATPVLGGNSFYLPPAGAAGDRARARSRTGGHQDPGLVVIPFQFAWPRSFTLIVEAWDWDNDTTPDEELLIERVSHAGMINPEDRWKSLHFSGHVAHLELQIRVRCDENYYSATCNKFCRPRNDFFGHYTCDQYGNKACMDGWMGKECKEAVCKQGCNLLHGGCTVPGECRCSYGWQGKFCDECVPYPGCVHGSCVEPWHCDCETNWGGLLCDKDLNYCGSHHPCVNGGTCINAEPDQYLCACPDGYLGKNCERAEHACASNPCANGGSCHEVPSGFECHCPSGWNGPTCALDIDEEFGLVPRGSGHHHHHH
Assay: Biacore (SPR)

Binder | Kd [nM]
B1 | 0.73
B8 | 0.3
B9 | 0.0025
B10 | 1.1
B11 | 1
B5 | 14

Target: T2, human Jag2-DSL-EGF1-4 (R2-E388) (UniProt Q9Y219 24-388)
T2 chain: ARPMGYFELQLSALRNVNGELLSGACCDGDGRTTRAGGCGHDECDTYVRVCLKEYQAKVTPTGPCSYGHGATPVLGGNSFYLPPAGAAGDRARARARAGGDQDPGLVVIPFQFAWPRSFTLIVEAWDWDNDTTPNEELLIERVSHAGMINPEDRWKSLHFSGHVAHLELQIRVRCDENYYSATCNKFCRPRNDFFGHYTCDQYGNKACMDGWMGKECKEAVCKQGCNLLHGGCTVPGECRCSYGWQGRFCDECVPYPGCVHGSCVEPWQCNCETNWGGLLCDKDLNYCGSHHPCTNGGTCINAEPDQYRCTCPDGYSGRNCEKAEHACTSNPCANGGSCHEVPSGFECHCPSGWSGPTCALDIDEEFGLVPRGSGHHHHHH
Assay: Biacore (SPR)

Binder | Kd [nM]
B1 | 0.12
B11 | 1
B5 | 4.6
